Measurements as given in CN115819578A (WUHAN ABCLONAL INC, dated 2023).
One block for each binder: values may come before it.

Target: T1, 重组人IL-5蛋白 (recombinant Human IL-5, R&D Systems 205-IL-005) (human, UniProt P05113 20-134)
T1 construct: Bought protein; also called 重组human IL-5; His-tag重组human IL-5
T1 sequence (looked up): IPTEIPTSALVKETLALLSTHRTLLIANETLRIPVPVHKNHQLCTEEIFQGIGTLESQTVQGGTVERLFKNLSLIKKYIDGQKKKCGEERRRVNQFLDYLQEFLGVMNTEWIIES
Test: BLI (Probe Life Gator), antibody 2 μg/mL on proA probe, recombinant human IL-5 at 150 nM and 70 nM

Kd: 4.03 nM
B1: 兔单克隆抗体16D2 (anti-human IL-5 rabbit monoclonal antibody 16D2) (antibody, V domains shown)
VH: QEQLEESGGDLVKPEGSLTLTCTASGFSFSINYWICWVRQAPGKGLEWIACIYGGSSGSAYYATWAKGRFTISKTSSTTVTLQMTSLTAADTATYFCARDDEGGGIFYNLWGPGTLVTVSS
VL: AYDMTQTPSSASEPVGGTVTIKCQASEDIYNLLAWYQQKPGQPPKLLIYSASTLASGVPSRFKGSGSGTEYTLTISDLECADAATYYCEQHYTPSNVHNTFGGGTEVVVKG
notes: also called 16D2抗体; 抗人IL-5兔单克隆抗体16D2

Kd: 0.306 nM
B2: 兔单克隆抗体24A10 (anti-human IL-5 rabbit monoclonal antibody 24A10) (antibody, V domains shown)
VH: QSLEESGGGLVQPEGSLTLTCTASGFSFSSSYYMCWVRQAPGKGLEWIGCIAAGSSGISYYASWAKGRFTISKTSSTTVTLQMTGLTAADTATYLCSRSCDIYSDGGTSFDLWGPGTLVTVSS
VL: DVVMTQTPASVSEPVGGTVTIKCQASQSISSYLAWYQQKPGQPPKLLIYEASKLASGVPSRFKGSGSGTEFTLTISDLECADAATYYCESNYDITSSYFGGGTEVVVKG
notes: in the BLI assays it was unlabelled; also called 24A10抗体; 人IL-5兔单克隆抗体24A10
